Assay results from paper PMC7954794, “Protein context shapes the specificity of SH3 domain-mediated interactions in vivo” (Nature Communications, 2021).

Tests used:
[1] = system: growth of yeast strains under 51 stress conditions; experiment: Growth assays in 51 stress conditions (Fig. 1E-F, S2D, S5B); assay type: cell-based, Saccharomyces cerevisiae; set-up: key to Growth (Fig. S2D) / growth of ABP1 SH3-swapped strains in stress condition: log2 colony size, average of median per strain (growth score); conditions: for Growth (Fig. S2D): ABP1 SH3-swapped strains
Summary of the method: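 Yeast WT, SH3-deleted, KO, SH3-swapped and SH3-shuffled strains pinned in 1536 format, 12 replicates each; pregrown on YPD 2 days at 30 °C, then replicated onto 51 media at 37 °C and imaged every 2 h. Growth score = mean of per-plate median log2 colony size at 74 h.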

[2] = system: growth of ABP1 SH3-swapped strains in hygromycin B; conditions: cited from earlier work
Source text: Having determined that multiple PPIs require SH3s, we asked whether the latter establish PPI specificity independently from their host proteins by swapping domains (Fig. 2A). Using the second round of genome editing, we individually replaced Abp1 SH3 with the 27 yeast SH3s and 3 human Abp1 orthologs’ SH3s (CTTN, HCLS1, and DBNL, Fig. 2B). The reintroduction of its own SH3 (Abp1SH3 in Abp1) reconstitutes almost perfectly Abp1’s interaction profile (Kendall’s τ = 0.93, Fig. 2B).

B1: ABP1: yeast SH3-containing protein; SH3-deleted (D) or gene-deleted (KO) strain (protein, UniProt P15891 2-592, looked up)
Actin-binding protein: ALEPIDYTTHSREIDAEYLKIVRGSDPDTTWLIISPNAKKEYEPESTGSSFHDFLQLFDETKVQYGLARVSPPGSDVEKIIIIGWCPDSAPLKTRASFAANFAAVANNLFKGYHVQVTARDEDDLDENELLMKISNAAGARYSIQTSSKQQGKASTPPVKKSFTPSKSPAPVSKKEPVKTPSPAPAAKISSRVNDNNDDDDWNEPELKERDFDQAPLKPNQSSYKPIGKIDLQKVIAEEKAKEDPRLVQKPTAAGSKIDPSSDIANLKNESKLKRDSEFNSFLGTTKPPSMTESSLKNDDDKVIKGFRNEKSPAQLWAERKAKQNSGNAETKAEAPKPEVPEDEPEGEPDVKDLKSKFEGLAASEKEEEEMENKFAPPPKKSEPTIISPKPFSKPQEPVKAEEAEQPKTDYKKIGNPLPGMHIEADNEEEPEENDDDWDDDEDEAAQPPLPSRNVASGAPVQKEEPEQEEIAPSLPSRNSIPAPKQEEAPEQAPEEEIEEEAEEAAPQLPSRSSAAPPPPPRRATPEKKPKENPWATAEYDYDAAEDNELTFVENDKIINIEFVDDDWWLGELEKDGSKGLFPSNYVSLGN
size (colony size) ([1]; Abp1 SH3 swaps (FigS2D), SC pH6, Plate 1, Time 74, Rep 1, one colony): 2065
relative_to_wt, D_minus_WT ([1]; Bathophenanthroline 0.1uM, D = SH3 deletion (all SH3s deleted for multi-SH3 proteins), log2 colony size, 74 h at 37 °C, n = 12): 0.05618
relative_to_wt, KO_minus_WT ([1]; Bathophenanthroline 0.1uM, KO = gene deletion, log2 colony size, 74 h at 37 °C, n = 12): -0.004019
Growth (Fig. S2D) ([1]; Bathophenanthroline.0.1uM): 10.7819
Growth (Fig. S2D) ([1]; Bathophenanthroline.10uM): 10.707
Growth (Fig. S2D) ([1]; Bathophenanthroline.1uM): 10.7137
Growth (Fig. S2D) ([1]; CaCl2.100mM): 10.7891
Growth (Fig. S2D) ([1]; CaCl2.250mM): 10.7489
Growth (Fig. S2D) ([1]; CaCl2.500mM): 10.224
Growth (Fig. S2D) ([1]; Caffein.10mM): 10.0464
Growth (Fig. S2D) ([1]; CdCl2.10uM): 10.9024
Growth (Fig. S2D) ([1]; CdCl2.50uM): 10.1243
Growth (Fig. S2D) ([1]; CuSO4.1mM): 10.685
Growth (Fig. S2D) ([1]; CuSO4.5mM): 8.504
Growth (Fig. S2D) ([1]; Cycloheximide.0.05.uM): 11.0798
Growth (Fig. S2D) ([1]; Cycloheximide.0.2.uM): 10.7165
Growth (Fig. S2D) ([1]; Cycloheximide.0.5.uM): 10.6015
Growth (Fig. S2D) ([1]; DMSO.2.): 11.0276
Growth (Fig. S2D) ([1]; DMSO.6.): 10.032
Growth (Fig. S2D) ([1]; DMSO.8.): 9.2108
Growth (Fig. S2D) ([1]; Ethanol.2.): 10.8119
Growth (Fig. S2D) ([1]; Ethanol.6.): 10.4593
Growth (Fig. S2D) ([1]; Ethanol.8.): 10.4305
Growth (Fig. S2D) ([1]; Galactose.2.): 10.8275
Growth (Fig. S2D) ([1]; Glycerol.2.): 10.3524
Growth (Fig. S2D) ([1]; Hydroxyurea.25mM): 10.8959
Growth (Fig. S2D) ([1]; Hygromycin.190uM): 10.9986
Growth (Fig. S2D) ([1]; Hygromycin.19uM): 10.9797
Growth (Fig. S2D) ([1]; Hygromycin.95uM): 11.0235
Growth (Fig. S2D) ([1]; MMS.0.004.): 10.9969
Growth (Fig. S2D) ([1]; MMS.0.02.): 10.8642
Growth (Fig. S2D) ([1]; MMS.0.04.): 10.3851
Growth (Fig. S2D) ([1]; Menadione.100uM): 10.5759
Growth (Fig. S2D) ([1]; Menadione.200uM): 10.5046
Growth (Fig. S2D) ([1]; Menadione.50uM): 10.8116
Growth (Fig. S2D) ([1]; NaCl.0.25M): 10.7355
Growth (Fig. S2D) ([1]; NaCl.1M): 10.3236
Growth (Fig. S2D) ([1]; Nitroquinoline.10uM): 10.7675
Growth (Fig. S2D) ([1]; Nitroquinoline.50uM): 10.7265
Growth (Fig. S2D) ([1]; Nystatin.0.01uM): 11.043
Growth (Fig. S2D) ([1]; Nystatin.0.1uM): 11.0609
Growth (Fig. S2D) ([1]; Raffinose.2.): 10.9185
Growth (Fig. S2D) ([1]; Rapamycin.10nM): 10.1065
Growth (Fig. S2D) ([1]; Rapamycin.50nM): 9.408
Growth (Fig. S2D) ([1]; SC.pH3): 10.3986
Growth (Fig. S2D) ([1]; SC.pH6): 11.0415
Growth (Fig. S2D) ([1]; SDS.0.01.): 10.9914
Growth (Fig. S2D) ([1]; SDS.0.02.): 10.9706
Growth (Fig. S2D) ([1]; SDS.0.05.): 10.8264
Growth (Fig. S2D) ([1]; Sorbitol.10mM): 10.9836
Growth (Fig. S2D) ([1]; Sorbitol.1mM): 10.9924
Growth (Fig. S2D) ([1]; Sorbitol.5mM): 10.9128
Hygromycin phenotype, literature [2]: hygromycin resistance
